Results on 1 substance are retold here after patent US20120269826A1.

In the experiment the target is CD3/TCR complex on mouse T cells (mouse) (UniProt P22646). Description: cell-based or functional assay.
Sequence of UniProt P22646 (P22646 22-189, chain 1 of 4): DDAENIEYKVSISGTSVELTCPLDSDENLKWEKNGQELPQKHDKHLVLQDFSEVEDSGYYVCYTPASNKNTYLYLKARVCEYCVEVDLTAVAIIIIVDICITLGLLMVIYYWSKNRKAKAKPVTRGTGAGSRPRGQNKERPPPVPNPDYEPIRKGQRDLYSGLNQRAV
Sequence of UniProt P22646 (P11942 23-182, chain 2 of 4, further chain): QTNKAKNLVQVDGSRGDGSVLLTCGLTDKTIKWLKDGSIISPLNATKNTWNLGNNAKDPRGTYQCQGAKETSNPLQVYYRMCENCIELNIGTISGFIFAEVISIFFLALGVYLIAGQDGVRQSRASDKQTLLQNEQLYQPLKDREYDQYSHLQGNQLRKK
Sequence of UniProt P22646 (P04235 22-173, chain 3 of 4, further chain): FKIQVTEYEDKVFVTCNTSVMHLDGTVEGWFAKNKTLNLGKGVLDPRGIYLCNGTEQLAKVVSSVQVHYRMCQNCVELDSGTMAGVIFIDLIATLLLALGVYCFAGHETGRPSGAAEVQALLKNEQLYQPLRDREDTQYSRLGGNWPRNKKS
Sequence of UniProt P22646 (P24161 22-164, chain 4 of 4, further chain): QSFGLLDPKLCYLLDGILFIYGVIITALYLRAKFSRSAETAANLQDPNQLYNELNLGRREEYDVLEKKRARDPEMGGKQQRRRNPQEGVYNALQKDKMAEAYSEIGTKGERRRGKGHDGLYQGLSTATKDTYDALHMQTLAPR

As to “anti-CD3 mAb F(ab′)2 (hamster anti-mouse CD3 mAb, clone 145-2C11)”, the CD3/TCR-complex expression 24 hr after dose 4, 5 µg dose, Study A (% of baseline) was determined as 50; the CD3/TCR-complex expression 24 hr after dose 4, 25 µg dose, Study A (% of baseline) turned out to be 12; the percentage of CD3/TCR-complex modulation after the fourth dose, 1 µg (4×/72 hr) dose regimen, BALB/c mice was 19.7%; the percentage of CD3/TCR-complex modulation after the fourth dose, 2 µg (4×/72 hr) dose regimen, BALB/c mice is 30.3%.
